For the test, the target named is cAMP-dependent protein kinase (PKA), murine catalytic subunit (murine) (UniProt P05132). Nature of the test: cell-based or functional assay.

As for PKI (14-22) peptide, the IC50 of PKA activity (Deep Quench assay, P2/Ponceau S, 1 mM ATP) is 1100 nM and the IC50 of PKA activity (standard radioactive ATP method) is 1600 nM.

Source of the values: patent publication US20080318246A1, “Deeply quenched enzyme sensors” (The Albert Einstein College of Medicine of Yeshiva …, priority 2007, published 2008).
